Experimental data published in patent publication US20180244758A1 (MAPP BIOPHARMACEUTICAL, published 2018).
Substitutions are numbered along the chain they refer to.

B1: mAb PE-16 (antibody, V domains shown)
VH: QVQLVQSGAEVTKPGASVKVSCKASGYTFTTYYMHWVRQAPGQGLEWVGIINPSGGITRYAQKFQGRVTLTRDTSTTTVYMELSSLRSEDTAVYYCARDRYPVLFATDYGMDVWGQGTTVTVSS
VL: DIVMTQSPATLSLSPGERATLSCRASQSVSGYLAWYQQKPGQAPRLLIYDASNRATGIPARFSGSGSGTDFTLTISSLEPEDFAVYYCQQRSIWPPGVTFGGGTKVEIK
B2: mAb PE-05 (antibody, V domains shown)
VH: QVQLQESGGGLVKPGRSLRLSCTASGFTFGDYAMSWFRQAPGKGLEWVGFLRSKAYGGTAEYAASVKGRFTMSRDDSKSIAYLQMNSLKTEDTAVYFCTRDGFRGSSWGYSYYGMDVWGQGTTVTVSS
VL: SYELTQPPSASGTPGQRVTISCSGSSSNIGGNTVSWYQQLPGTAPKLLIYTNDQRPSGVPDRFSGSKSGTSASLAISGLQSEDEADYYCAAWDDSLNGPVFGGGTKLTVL
B3: mAb PE-87 (antibody, V domains shown)
VH: QVQLVQSGVTLVQPGGSLRVSCAASGFTFSSYAMSWVRQAPGKGLEWVSAISGLGGSTYYADSVKGRFTISRDNSKNTLYLQMNSLRAEDTAVYYCAKDHRVWAAGYHFDYWGQGALVTVSS
VL: DIVLTQSPSTLSASVGDRVTITCRASQSISSWLAWYQQKPGEAPKLLISDASSLESGVPSRFSGSGSGTEFTLTISSLQPDDFATYYCQQYYSSPTFGGGTKVEIK
B4: mAb PE-24 (antibody, V domains shown)
VH: EVQLVESGGGLVQPGGSLRLSCAASGFTFSSYAMSWVRQAPGKGLEWVSEISGLGGSTYYADSAKGRFTISRDNSKSTLYLQMNSLRAEDTAVYYCAKDHRVWAPGYYFDHWGQGTLVTVSS
VL: B3 VL with E42K, S49Y, Y87F, Y92N, S93R
B5: mAb PE-47 (antibody, V domains shown)
VH: EVQLVESGGGLVKPGGSLRLSCAASGFTFSNAWMSWVRQAPGEGLEWVGRIKSKTDGGTIDYAAPVKGRFTISRDDSKNTVYLQMTSLKTEDTAVYYCTTYTEDMQYFDWLLRGGETFDYWGQGTLVTVSS
VL: DIQMTQSPSSLSASVGDRVTITCRASQYISTYLNWYQQKPGKAPKLLIYAAYNLQSGVPSRFSGSGSGTDFTLTISSLQPEDFATYYCQQSYSTPGRYTFGQGTKVEIK

The binders below were run against T1, TAFV GP on VSV pseudotype particles (Tai Forest virus (TAFV), UniProt Q66810 33-676) (assay: cell-based or functional assay).
T1 sequence: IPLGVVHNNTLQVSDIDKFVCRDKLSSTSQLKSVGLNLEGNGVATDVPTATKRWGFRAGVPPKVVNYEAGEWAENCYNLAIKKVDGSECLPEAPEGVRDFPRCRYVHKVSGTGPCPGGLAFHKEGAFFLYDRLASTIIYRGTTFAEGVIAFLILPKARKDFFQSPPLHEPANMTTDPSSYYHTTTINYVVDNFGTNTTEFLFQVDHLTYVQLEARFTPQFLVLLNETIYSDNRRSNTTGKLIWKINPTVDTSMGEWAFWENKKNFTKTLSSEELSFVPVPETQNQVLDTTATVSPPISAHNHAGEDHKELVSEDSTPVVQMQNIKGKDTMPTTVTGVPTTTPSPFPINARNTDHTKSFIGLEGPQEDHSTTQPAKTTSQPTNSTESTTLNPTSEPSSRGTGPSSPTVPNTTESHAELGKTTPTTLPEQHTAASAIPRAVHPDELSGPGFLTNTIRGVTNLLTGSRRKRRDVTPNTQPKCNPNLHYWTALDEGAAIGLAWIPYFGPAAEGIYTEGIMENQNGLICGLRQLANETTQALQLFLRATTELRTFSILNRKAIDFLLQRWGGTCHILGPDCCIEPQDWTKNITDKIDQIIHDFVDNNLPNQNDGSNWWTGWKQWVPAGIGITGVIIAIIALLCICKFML

Binder	rVSV-GP neutralization IC50 [nM]
B1	4.8
B2	0.8
B3	1
B4	1.5

What follows are binders tested against T2, EBOV GP (Ebola virus (EBOV), UniProt Q05320 33-637) (assay: not given).
T2 sequence: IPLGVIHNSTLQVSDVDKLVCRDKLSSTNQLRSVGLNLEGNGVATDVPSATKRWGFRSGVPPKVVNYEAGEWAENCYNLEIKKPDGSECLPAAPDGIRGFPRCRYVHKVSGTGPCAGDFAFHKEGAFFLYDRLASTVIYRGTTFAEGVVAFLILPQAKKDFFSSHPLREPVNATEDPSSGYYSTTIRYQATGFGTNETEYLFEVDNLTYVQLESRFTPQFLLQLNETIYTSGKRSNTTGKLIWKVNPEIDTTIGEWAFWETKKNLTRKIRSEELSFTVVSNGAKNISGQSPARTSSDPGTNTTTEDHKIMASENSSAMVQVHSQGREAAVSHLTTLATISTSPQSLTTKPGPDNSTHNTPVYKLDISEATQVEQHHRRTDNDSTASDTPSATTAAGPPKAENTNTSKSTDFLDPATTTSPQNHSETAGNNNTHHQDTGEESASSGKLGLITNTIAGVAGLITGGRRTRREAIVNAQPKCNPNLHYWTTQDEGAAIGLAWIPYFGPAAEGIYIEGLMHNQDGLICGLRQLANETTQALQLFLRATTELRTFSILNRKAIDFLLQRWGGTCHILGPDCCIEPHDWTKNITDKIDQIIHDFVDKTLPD

Binder	Kd [nM]
B1	0.16
B2	44
B3	< 0.01
B4	1
B5	3.5

Each binder was assayed against T3, GP of authentic (wild-type) SUDV (Sudan virus (SUDV), UniProt Q66814 33-676) (assay: cell-based or functional assay).
T3 sequence: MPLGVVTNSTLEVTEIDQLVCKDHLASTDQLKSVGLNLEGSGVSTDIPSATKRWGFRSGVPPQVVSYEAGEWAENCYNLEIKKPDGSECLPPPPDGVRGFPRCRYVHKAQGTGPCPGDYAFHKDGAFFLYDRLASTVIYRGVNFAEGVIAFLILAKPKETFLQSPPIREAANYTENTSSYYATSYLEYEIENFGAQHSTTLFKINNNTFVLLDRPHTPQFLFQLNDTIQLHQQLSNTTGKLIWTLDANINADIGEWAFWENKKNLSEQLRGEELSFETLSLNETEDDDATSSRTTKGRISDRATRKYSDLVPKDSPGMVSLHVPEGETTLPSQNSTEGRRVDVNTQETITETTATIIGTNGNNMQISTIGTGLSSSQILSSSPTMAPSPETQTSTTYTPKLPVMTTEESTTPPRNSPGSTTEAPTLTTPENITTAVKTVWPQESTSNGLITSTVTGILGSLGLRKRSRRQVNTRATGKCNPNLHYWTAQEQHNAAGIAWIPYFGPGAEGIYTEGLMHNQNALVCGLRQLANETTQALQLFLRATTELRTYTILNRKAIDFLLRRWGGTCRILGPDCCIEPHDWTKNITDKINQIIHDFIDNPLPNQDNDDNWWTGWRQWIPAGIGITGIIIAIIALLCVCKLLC

Binder	Authentic virus neutralization IC50 [nM]
B1	300
B3	0.2
B4	0.2

The binders below were run against GP of authentic (wild-type) BDBV (Bundibugyo virus (BDBV)) (assay: cell-based or functional assay).

Binder	Authentic virus neutralization IC50 [nM]
B1	0.3
B3	0.6
B4	0.6

Each binder was assayed against T4, GP of authentic (wild-type) EBOV (Ebola virus (EBOV), UniProt P87666 33-676) (assay: cell-based or functional assay).
T4 sequence: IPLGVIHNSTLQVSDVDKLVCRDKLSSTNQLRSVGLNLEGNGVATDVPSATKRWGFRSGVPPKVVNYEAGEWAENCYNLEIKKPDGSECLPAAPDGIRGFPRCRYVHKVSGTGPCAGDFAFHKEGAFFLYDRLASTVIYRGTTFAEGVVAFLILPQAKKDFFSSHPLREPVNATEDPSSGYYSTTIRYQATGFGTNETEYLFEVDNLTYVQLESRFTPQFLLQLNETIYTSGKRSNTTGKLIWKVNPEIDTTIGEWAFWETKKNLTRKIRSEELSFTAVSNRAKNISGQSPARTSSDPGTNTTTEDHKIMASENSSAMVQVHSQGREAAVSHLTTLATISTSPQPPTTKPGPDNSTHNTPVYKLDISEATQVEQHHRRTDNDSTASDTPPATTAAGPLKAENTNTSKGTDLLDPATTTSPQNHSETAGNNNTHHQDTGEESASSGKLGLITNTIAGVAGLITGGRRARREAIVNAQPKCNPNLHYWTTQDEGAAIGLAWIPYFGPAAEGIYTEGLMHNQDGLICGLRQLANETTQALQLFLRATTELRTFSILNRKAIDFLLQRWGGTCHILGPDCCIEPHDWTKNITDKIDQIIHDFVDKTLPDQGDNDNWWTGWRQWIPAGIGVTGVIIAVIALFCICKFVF

Binder	Authentic virus neutralization IC50 [nM]
B1	0.1
B2	5.2
B3	0.2
B4	0.7
